Patent US20260218128A1 (CARSGEN LIFE SCIENCES, published 2026)
Substitutions are numbered along the chain they refer to.

T1: human MOG overexpressed on cells (293T-hMOG, K562-hMOG) (human, UniProt Q16653 30-247)
T1 construct: Cells overexpressing human MOG built by conventional techniques; also called K562-huMOG
T1 chain: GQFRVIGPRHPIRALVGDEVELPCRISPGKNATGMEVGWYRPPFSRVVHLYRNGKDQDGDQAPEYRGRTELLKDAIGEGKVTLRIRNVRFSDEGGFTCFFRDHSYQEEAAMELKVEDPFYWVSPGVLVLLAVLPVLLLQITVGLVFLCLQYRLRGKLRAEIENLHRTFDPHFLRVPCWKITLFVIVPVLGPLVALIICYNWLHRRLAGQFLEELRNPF

T2: mouse MOG overexpressed on cells (293T-mMOG, K562-mMOG) (mouse, UniProt Q61885 29-246)
T2 construct: whole, on cells
T2 sequence (looked up): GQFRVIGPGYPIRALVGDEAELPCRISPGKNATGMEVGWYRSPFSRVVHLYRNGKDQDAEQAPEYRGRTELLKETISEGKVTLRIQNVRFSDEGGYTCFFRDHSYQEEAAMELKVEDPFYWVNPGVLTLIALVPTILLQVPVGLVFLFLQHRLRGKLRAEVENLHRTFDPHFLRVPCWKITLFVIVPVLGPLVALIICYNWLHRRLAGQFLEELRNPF

T3: recombinant hMOG_his (human, UniProt Q16653 30-154, limits assumed)
T3 construct: also called human MOG antigen; not shown: His tag
T3 sequence: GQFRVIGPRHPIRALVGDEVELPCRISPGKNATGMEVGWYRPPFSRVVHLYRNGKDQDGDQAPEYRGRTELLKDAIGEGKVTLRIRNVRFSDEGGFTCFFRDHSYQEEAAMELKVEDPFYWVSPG

B1: A1 (Fab form) (Fab, V domains shown)
VH: QVQLVQSGAEVKKPGSSVKVSCKASGGTFSSYAISWVRQAPGQGLEWMGGIIPIFGTANYAQKFQGRVTITADKSTSTAYMELSSLRSEDTAVYYCARGYFSEEAMDYWGQGTTVTVSS
VL: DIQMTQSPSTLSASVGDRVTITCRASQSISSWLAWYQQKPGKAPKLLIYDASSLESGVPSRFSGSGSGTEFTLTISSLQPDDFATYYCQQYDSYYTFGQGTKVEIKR
notes: Fully human anti-MOG clone tested in Fab form; also called antibody A1
B2: A9 (Fab form) (Fab, V domains shown)
VH: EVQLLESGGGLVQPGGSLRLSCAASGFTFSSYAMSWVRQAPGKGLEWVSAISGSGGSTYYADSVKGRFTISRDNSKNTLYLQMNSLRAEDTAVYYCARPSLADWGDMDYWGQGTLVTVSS
VL: DIQMTQSPSTLSASVGDRVTITCRASQSISSWLAWYQQKPGKAPKLLIYDASSLESGVPSRFSGSGSGTEFTLTISSLQPDDFATYYCQQYDQYWTFGQGTKVEIKR
notes: also called antibody A9
B3: A11 (Fab form) (Fab, V domains shown)
VH: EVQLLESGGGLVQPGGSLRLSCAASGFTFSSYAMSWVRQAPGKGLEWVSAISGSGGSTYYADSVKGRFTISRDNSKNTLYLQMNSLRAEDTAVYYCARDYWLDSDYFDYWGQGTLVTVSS
VL: B2 VL with Y91V, D92Y, Q93I, W95S
notes: Fully human anti-MOG clone tested in Fab form; also called antibody A11; All [sic]
B4: A12 (Fab form) (Fab, V domains shown)
VH: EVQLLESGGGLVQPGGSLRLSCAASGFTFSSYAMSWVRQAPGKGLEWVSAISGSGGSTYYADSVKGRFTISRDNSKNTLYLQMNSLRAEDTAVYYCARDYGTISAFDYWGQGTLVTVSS
VL: B2 VL with D92G, Q93I, Y94P
notes: Fully human anti-MOG clone tested in Fab form; also called antibody A12
B5: A3 (Fab form) (Fab, V domains shown)
VH: QVQLVQSGAEVKKPGSSVKVSCKASGGTFSSYAISWVRQAPGQGLEWMGGIIPIFGTANYAQKFQGRVTITADKSTSTAYMELSSLRSEDTAVYYCARGWYFFDAGFDYWGQGTTVTVSS
VL: DIQMTQSPSTLSASVGDRVTITCRASQSISSWLAWYQQKPGKAPKLLIYDASSLESGVPSRFSGSGSGTEFTLTISSLQPDDFATYYCQQYDSPLLTFGQGTKVEIKR
notes: Fully human anti-MOG clone tested in Fab form; also called antibody A3
B6: A4 (Fab form) (Fab, V domains shown)
VH: B5 VH with G99E, F102W, F103P, A105N, G106P
VL: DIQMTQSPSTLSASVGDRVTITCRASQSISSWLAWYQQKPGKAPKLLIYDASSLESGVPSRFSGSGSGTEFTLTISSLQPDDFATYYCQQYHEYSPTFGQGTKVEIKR
notes: Fully human anti-MOG clone tested in Fab form; also called antibody A4
B7: A5 (Fab form) (Fab, V domains shown)
VH: QVQLVQSGAEVKKPGSSVKVSCKASGGTFSSYAISWVRQAPGQGLEWMGGIIPIFGTANYAQKFQGRVTITADKSTSTAYMELSSLRSEDTAVYYCARAPYSPTYYPFDYWGQGTTVTVSS
VL: B5 VL with D92S, S93M, P94D, L95H
notes: Fully human anti-MOG clone tested in Fab form; also called antibody A5
B8: A7 (Fab form) (Fab, V domains shown)
VH: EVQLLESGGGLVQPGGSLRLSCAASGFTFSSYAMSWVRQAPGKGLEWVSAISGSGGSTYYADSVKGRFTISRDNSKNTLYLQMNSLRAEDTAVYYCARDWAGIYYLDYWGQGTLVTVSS
VL: B5 VL with Y91S, S93T, P94Y, L95P, L96R
notes: Fully human anti-MOG clone tested in Fab form; also called antibody A7

Target: T1, human MOG overexpressed on cells …
Assay: flow cytometry, Fab 5 µg/mL on 293T-hMOG cells, Anti-Fc-FITC secondary, MFI; controls 293T cells and NA (no antibody)

**Q.** Does B1 bind?
**A.** binds

**Q.** Does B2 bind?
**A.** binds

**Q.** Does B3 bind?
**A.** binds

**Q.** Does B4 bind?
**A.** binds

**Q.** Does B5 bind?
**A.** binds

**Q.** Does B6 bind?
**A.** binds

**Q.** Does B7 bind?
**A.** binds

**Q.** Does B8 bind?
**A.** binds

What follows are binders tested against T2, mouse MOG overexpressed on cells … (assay: flow cytometry, Fab on 293T-mMOG cells, Anti-Fc-FITC secondary, MFI).

**Q.** Does B1 bind?
**A.** no binding

**Q.** Does B2 bind?
**A.** no binding

**Q.** Does B3 bind?
**A.** no binding

**Q.** Does B4 bind?
**A.** no binding

**Q.** Does B5 bind?
**A.** no binding

What follows are binders tested against T2, mouse MOG overexpressed on cells … (assay: flow cytometry, Fab 5 µg/mL on 293T-mMOG cells, Anti-Fc-FITC secondary, MFI; controls 293T cells and NA (no antibody)).

**Q.** Does B6 bind?
**A.** binds

**Q.** Does B7 bind?
**A.** binds

**Q.** Does B8 bind?
**A.** binds

Each binder was assayed against T3, recombinant hMOG_his (assay: SPR, Biacore T200; MOG_His amine-coupled on CM5, Fab as analyte, 1:1 Langmuir fit).

**Q.** B1 was tested. Which Kd did it give?
**A.** 7.26 nM

**Q.** What about the koff of the same binder?
**A.** 0.00193 s⁻¹

**Q.** What about the kon of the same binder?
**A.** 266000 M⁻¹ s⁻¹

**Q.** B2 was tested. Which Kd did it give?
**A.** 2.28 nM

**Q.** And the koff?
**A.** 0.000287 s⁻¹

**Q.** And the kon?
**A.** 125000 M⁻¹ s⁻¹

**Q.** With B3 as the binder, how does the Kd read?
**A.** 17.6 nM

**Q.** And the koff?
**A.** 0.00432 s⁻¹

**Q.** What about the kon of the same binder?
**A.** 246000 M⁻¹ s⁻¹

**Q.** What does the source list for B4?
**A.** Kd: 6.83 nM; koff: 0.00103 s⁻¹; kon: 151000 M⁻¹ s⁻¹

**Q.** Which Kd does the source give for B5 here?
**A.** 5.92 nM

**Q.** What about the koff of the same binder?
**A.** 0.00139 s⁻¹

**Q.** What about the kon of the same binder?
**A.** 234000 M⁻¹ s⁻¹

**Q.** How did the Kd turn out when B6 was run?
**A.** 24 nM

**Q.** What about the koff of the same binder?
**A.** 0.000516 s⁻¹

**Q.** What about the kon of the same binder?
**A.** 21500 M⁻¹ s⁻¹

**Q.** With B7 as the binder, how does the Kd read?
**A.** 27.6 nM

**Q.** What about the koff of the same binder?
**A.** 0.00278 s⁻¹

**Q.** And the kon?
**A.** 101000 M⁻¹ s⁻¹

**Q.** What does the source list for B8?
**A.** Kd: 25.6 nM; koff: 0.00166 s⁻¹; kon: 65000 M⁻¹ s⁻¹
